Data published in the supplement of paper PMC10567573.

B1: PI4K2A (parent)
chain: FVKDPQGRIIAVFKPKNEEPYGHL

Variants of: B1
Experiment: protein stability index of a GFP-peptide fusion (GPS, HEK-293T) (PSI 1-6); higher = more stable
Conditions: c terminus: a fixed tail appended
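Further: lentivirally expressed fusions sorted by FACS into six bins by GFP to DsRed ratio, PSI derived from sequencing read proportions per bin multiplied by bin number.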

| Variant | protein stability index |
| --- | --- |
| FVKDWQGRIIAVFKPKNEEPYGHL | 2.7 |
| FVKDLQGRIIAVFKPKNEEPYGHL | 1.39 |
| FVKDCQGRIIAVFKPKNEEPYGHL | 1.66 |
| FVKDEQGRIIAVFKPKNEEPYGHL | 2.04 |
| FVKDAQGRIIAVFKPKNEEPYGHL | 1.83 |
| FVKDYQGRIIAVFKPKNEEPYGHL | 2.28 |
| FVKDMQGRIIAVFKPKNEEPYGHL | 1.3 |
| FVKDKQGRIIAVFKPKNEEPYGHL | 2.07 |
| FVKDNQGRIIAVFKPKNEEPYGHL | 2.29 |
| FVKDQQGRIIAVFKPKNEEPYGHL | 2.83 |
| FVKDDQGRIIAVFKPKNEEPYGHL | 2.03 |
| FVKDHQGRIIAVFKPKNEEPYGHL | 2.51 |
| FVKDTQGRIIAVFKPKNEEPYGHL | 1.67 |
| FVKDRQGRIIAVFKPKNEEPYGHL | 2.16 |
| FVKDGQGRIIAVFKPKNEEPYGHL | 1.5 |
| FVKDPLGRIIAVFKPKNEEPYGHL | 2.22 |
| FVKDPEGRIIAVFKPKNEEPYGHL | 1.63 |
| FVKDPSGRIIAVFKPKNEEPYGHL | 1.6 |
| FVKDPKGRIIAVFKPKNEEPYGHL | 1.64 |
| FVKDPCGRIIAVFKPKNEEPYGHL | 1.54 |
| FVKDPTGRIIAVFKPKNEEPYGHL | 2.32 |
| FVKDPRGRIIAVFKPKNEEPYGHL | 1.49 |
| FVKDPNGRIIAVFKPKNEEPYGHL | 1.84 |
| FVKDPAGRIIAVFKPKNEEPYGHL | 1.71 |

| Variant | protein stability index |
| --- | --- |
| FVKDPWGRIIAVFKPKNEEPYGHL | 1.7 |
| FVKDPGGRIIAVFKPKNEEPYGHL | 1.92 |
| FVKDPIGRIIAVFKPKNEEPYGHL | 1.45 |
| FVKDPYGRIIAVFKPKNEEPYGHL | 1.6 |
| FVKDPMGRIIAVFKPKNEEPYGHL | 1.57 |
| FVKDPVGRIIAVFKPKNEEPYGHL | 2.53 |
| FVKDPPGRIIAVFKPKNEEPYGHL | 2.21 |
| FVKDPFGRIIAVFKPKNEEPYGHL | 1.62 |
| FVKDPHGRIIAVFKPKNEEPYGHL | 1.1 |
| FVKDPDGRIIAVFKPKNEEPYGHL | 2.4 |
| FVKDPQNRIIAVFKPKNEEPYGHL | 2.23 |
| FVKDPQCRIIAVFKPKNEEPYGHL | 2.03 |
| FVKDPQHRIIAVFKPKNEEPYGHL | 2.79 |
| FVKDPQDRIIAVFKPKNEEPYGHL | 1.69 |
| FVKDPQMRIIAVFKPKNEEPYGHL | 3.42 |
| FVKDPQKRIIAVFKPKNEEPYGHL | 3.39 |
| FVKDPQFRIIAVFKPKNEEPYGHL | 2.74 |
| FVKDPQIRIIAVFKPKNEEPYGHL | 3 |
| FVKDPQERIIAVFKPKNEEPYGHL | 2.98 |
| FVKDPQARIIAVFKPKNEEPYGHL | 2.29 |
| FVKDPQPRIIAVFKPKNEEPYGHL | 1.81 |
| WVKDPQGRIIAVFKPKNEEPYGHL | 1.89 |
| TVKDPQGRIIAVFKPKNEEPYGHL | 3.36 |
| SVKDPQGRIIAVFKPKNEEPYGHL | 2.76 |

| Variant | protein stability index |
| --- | --- |
| VVKDPQGRIIAVFKPKNEEPYGHL | 2.84 |
| FVKLPQGRIIAVFKPKNEEPYGHL | 1.11 |
| FVKKPQGRIIAVFKPKNEEPYGHL | 2.28 |
| FVKEPQGRIIAVFKPKNEEPYGHL | 1.49 |
| FVKQPQGRIIAVFKPKNEEPYGHL | 2.74 |
| FVKPPQGRIIAVFKPKNEEPYGHL | 1.31 |
| FVKGPQGRIIAVFKPKNEEPYGHL | 1 |
| FVKFPQGRIIAVFKPKNEEPYGHL | 2.21 |
| FVKSPQGRIIAVFKPKNEEPYGHL | 1.7 |
| FVKHPQGRIIAVFKPKNEEPYGHL | 1.12 |
| FVKCPQGRIIAVFKPKNEEPYGHL | 2.08 |
| FVKTPQGRIIAVFKPKNEEPYGHL | 1.48 |
| FVKAPQGRIIAVFKPKNEEPYGHL | 2.86 |
| FVKYPQGRIIAVFKPKNEEPYGHL | 2.06 |
| FVMDPQGRIIAVFKPKNEEPYGHL | 1.47 |
| FVPDPQGRIIAVFKPKNEEPYGHL | 1.91 |
| FVHDPQGRIIAVFKPKNEEPYGHL | 1.68 |
| FVCDPQGRIIAVFKPKNEEPYGHL | 2.7 |
| FVGDPQGRIIAVFKPKNEEPYGHL | 2.56 |
| FVADPQGRIIAVFKPKNEEPYGHL | 1.57 |
| FVEDPQGRIIAVFKPKNEEPYGHL | 1.42 |
| FVIDPQGRIIAVFKPKNEEPYGHL | 2.03 |
| FVLDPQGRIIAVFKPKNEEPYGHL | 1.85 |
| FVRDPQGRIIAVFKPKNEEPYGHL | 3.49 |

| Variant | protein stability index |
| --- | --- |
| FVQDPQGRIIAVFKPKNEEPYGHL | 1.32 |
| FVYDPQGRIIAVFKPKNEEPYGHL | 2.01 |
| FVWDPQGRIIAVFKPKNEEPYGHL | 2.19 |
| FVSDPQGRIIAVFKPKNEEPYGHL | 2.67 |
| FMKDPQGRIIAVFKPKNEEPYGHL | 2.42 |
| FAKDPQGRIIAVFKPKNEEPYGHL | 2.07 |
| FPKDPQGRIIAVFKPKNEEPYGHL | 2.13 |
| FCKDPQGRIIAVFKPKNEEPYGHL | 1.33 |
| FWKDPQGRIIAVFKPKNEEPYGHL | 1.71 |
| FNKDPQGRIIAVFKPKNEEPYGHL | 3.04 |
| FDKDPQGRIIAVFKPKNEEPYGHL | 3.36 |
| FIKDPQGRIIAVFKPKNEEPYGHL | 2.01 |
| FLKDPQGRIIAVFKPKNEEPYGHL | 2.45 |
| FQKDPQGRIIAVFKPKNEEPYGHL | 1.99 |
| FRKDPQGRIIAVFKPKNEEPYGHL | 2.88 |
| FSKDPQGRIIAVFKPKNEEPYGHL | 2.44 |
| FFKDPQGRIIAVFKPKNEEPYGHL | 2.17 |
| FEKDPQGRIIAVFKPKNEEPYGHL | 3.33 |
| FYKDPQGRIIAVFKPKNEEPYGHL | 1.95 |
| FTKDPQGRIIAVFKPKNEEPYGHL | 1.94 |
| FKKDPQGRIIAVFKPKNEEPYGHL | 2.04 |
| FGKDPQGRIIAVFKPKNEEPYGHL | 2.09 |
